The record followed here is US20240109971A1 (MONASH UNIVERSITY, published 2024).

Experiment [1] concerns the target T1, human CCR6 (human, UniProt P51684 1-374).
T1 construct: also called hCCR6; CD196
T1 sequence: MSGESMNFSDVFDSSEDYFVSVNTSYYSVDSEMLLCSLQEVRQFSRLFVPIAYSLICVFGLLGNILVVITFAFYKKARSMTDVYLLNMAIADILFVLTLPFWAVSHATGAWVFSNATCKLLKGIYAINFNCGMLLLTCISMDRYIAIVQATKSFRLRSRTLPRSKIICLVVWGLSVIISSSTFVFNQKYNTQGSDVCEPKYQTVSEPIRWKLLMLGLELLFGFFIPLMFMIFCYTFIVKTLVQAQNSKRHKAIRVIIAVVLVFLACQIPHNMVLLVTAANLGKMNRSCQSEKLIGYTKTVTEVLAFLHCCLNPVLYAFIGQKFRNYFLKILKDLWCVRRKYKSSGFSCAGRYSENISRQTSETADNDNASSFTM
Description: FACS binding assay on hCCR6 L1.2 cells, PE-conjugated anti-human Fc detection; 1-21/WT mutant. How it is done: (§1) Binding characteristics of hAB6 and mutants hAB6-IgG1 to human CCR6 was performed using a FACS binding assay using cell line expressing human CCR6 (L1.2 human CCR6). Approximately 2.5 10⁵ hCCR6 L1.2 cells/test were washed with FACS binding buffer (FBB) (PBS, 0.5% BSA, 0.1% NaN3 (pH 7.4)), and stained with hAB6 or hAB6 mutants (4.4 μg/ml) and serial 3-fold dilutions of antibodies. After 1 h on ice, the cells were washed with FBB (pH 7.4) and with an anti-human Fc antibody PE-conjugated (Jackson ImmunoResearch). After 30 min on ice, the cells were washed 3 times with FBB (pH 7.4), and resuspended in 1% formaldehyde, and analyzed using a FACS LSR flow cytometer (BD Immunocytometry Systems). EC₅₀ values were calculated using GraphPad Prism.

The target of experiment [2] is T1, human CCR6. Description: FACS binding assay on hCCR6 L1.2 cells, PE-conjugated anti-human Fc detection; hAB6 (WT/WT). Here is the method: as §1
For experiment [3], the target named is T1, human CCR6. The experiment can be described thus: FACS binding assay on hCCR6 L1.2 cells, PE-conjugated anti-human Fc detection; WT/3-3 mutant. How it is done:
as §1
(A flow cytometer gives signals particle by particle.)

The target of experiment [4] is T1, human CCR6. The experiment can be described thus: FACS binding assay on hCCR6 L1.2 cells, PE-conjugated anti-human Fc detection; 1-23/3-3 mutant. Here is the method: as §1
The target in experiment [5] is T1, human CCR6. The experiment can be described thus: FACS binding assay on hCCR6 L1.2 cells, PE-conjugated anti-human Fc detection; 1-23/WT mutant. How it is done: as §1
For experiment [6], the target named is T1, human CCR6. The experiment can be described thus: FACS binding assay on hCCR6 L1.2 cells, PE-conjugated anti-human Fc detection; 1-21/3-3 mutant. Here is the method:
as §1

B1: hAB6 mutant 1-21/WT (antibody, V domains shown)
VH: EVQLVESGGGLVQPGGSLRLSCAASGFPFSDYYLYWVRQAPGKGLEWVAYITNGVGRTYYSDSVKGRFTISRDNAKNTLYLQMNSLRDEDTAVYYCTSPPLGGAWFGYWGQGTLVTVS
VL: DIVMTQSPLSLPVTPGEPASISCRSSQSIVHSNGNTYLEWYLQKPGQSPRLLIYKVSKRFSGVPDRFSGSGSGTDFTLKISRVEAEDVGVYYCFQGSHVPLTFGQGTKLEIKR
notes: IgG1 format
The term EC50 denotes the concentration giving half of the maximal effect. Read a high EC50 as lower potency in that assay. In experiment [1], B1 had a concentration for a half-maximal effect (EC50) of 0.46 nM.

B2: humanized AB6 mAb (antibody, V domains shown)
VH: EVQLVESGGGLVQPGGSLRLSCAASGFPFSDYYLYWVRQAPGKGLEWVAYITNGVGRTYYSDSVKGRFTISRDNAKNTLYLQMNSLRDEDTAVYYCTSPPLGGAWFAYWGQGTLVTVS
VL: DIVMTQSPLSLPVTPGEPASISCRSSQSIVHSNGNTYLEWYLQKPGQSPRLLIYKVSKRFSGVPDRFSGSGSGTDFTLKISRVEAEDVGVYYCFQGSHVPLTFGQGTKLEIKR
notes: also called hAB6; hAB6-IgG1
Molecule B2 came in with an EC50 in experiment [2] of 3.4 nM.

B3: hAB6 mutant WT/3-3 (antibody, V domains shown)
VH: EVQLVESGGGLVQPGGSLRLSCAASGFPFSDYYLYWVRQAPGKGLEWVAYITNGVGRTYYSDSVKGRFTISRDNAKNTLYLQMNSLRDEDTAVYYCTSPPLGGAWFAYWGQGTLVTVS
VL: DIVMTQSPLSLPVTPGEPASISCRSSRSIVHSNGNTYLEWYLQKPGQSPRLLIYKVSKRFSGVPDRFSGSGSGTDFTLKISRVEAEDVGVYYCFQGSHVPLTFGQGTKLEIKR
notes: IgG1 format
In experiment [3], B3 displayed an EC50 of 3.2 nM.

B4: hAB6 mutant 1-23/3-3 (antibody, V domains shown)
VH: EVQLVESGGGLVQPGGSLRLSCVASGFPFSDYYLYWVRQAPGKGLEWVAYITNGVGRTYYSDSVKGRFTISRDNAKNTLYLQMNSLRDEDTAVYYCTSPPLGGAWFGYWGQGTLVTVS
VL: DIVMTQSPLSLPVTPGEPASISCRSSRSIVHSNGNTYLEWYLQKPGQSPRLLIYKVSKRFSGVPDRFSGSGSGTDFTLKISRVEAEDVGVYYCFQGSHVPLTFGQGTKLEIKR
notes: IgG1 format
In turn, B4 returned an EC50 in experiment [4] of 1.2 nM.

B5: hAB6 mutant 1-23/WT (antibody, V domains shown)
VH: EVQLVESGGGLVQPGGSLRLSCVASGFPFSDYYLYWVRQAPGKGLEWVAYITNGVGRTYYSDSVKGRFTISRDNAKNTLYLQMNSLRDEDTAVYYCTSPPLGGAWFGYWGQGTLVTVS
VL: DIVMTQSPLSLPVTPGEPASISCRSSQSIVHSNGNTYLEWYLQKPGQSPRLLIYKVSKRFSGVPDRFSGSGSGTDFTLKISRVEAEDVGVYYCFQGSHVPLTFGQGTKLEIKR
notes: IgG1 format
The molecule B5 returned an EC50 in experiment [5] of 0.39 nM.

B6: hAB6 mutant 1-21/3-3 (antibody, V domains shown)
VH: EVQLVESGGGLVQPGGSLRLSCAASGFPFSDYYLYWVRQAPGKGLEWVAYITNGVGRTYYSDSVKGRFTISRDNAKNTLYLQMNSLRDEDTAVYYCTSPPLGGAWFGYWGQGTLVTVS
VL: DIVMTQSPLSLPVTPGEPASISCRSSRSIVHSNGNTYLEWYLQKPGQSPRLLIYKVSKRFSGVPDRFSGSGSGTDFTLKISRVEAEDVGVYYCFQGSHVPLTFGQGTKLEIKR
notes: IgG1 format
As for B6, the midpoint of the response in experiment [6], the EC50, lay at 0.41 nM.
